Data on two molecules can be found in publication PMC3342813 (2011).

Data set [1] concerns the target T1, BT2127 (Bacteroides thetaiotaomicron, UniProt Q8A5V9).
T1 sequence (Q8A5V9 1-224): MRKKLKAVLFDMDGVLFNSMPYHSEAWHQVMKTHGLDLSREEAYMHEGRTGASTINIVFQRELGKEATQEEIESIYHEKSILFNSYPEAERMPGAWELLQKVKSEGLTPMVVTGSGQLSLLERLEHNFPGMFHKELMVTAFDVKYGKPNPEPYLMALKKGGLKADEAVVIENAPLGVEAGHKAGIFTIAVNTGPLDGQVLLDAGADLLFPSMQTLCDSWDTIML
The data set is described as follows: steady-state competitive inhibition of pyrophosphate hydrolysis. The class given is biochemical.

Substrate in data set [2]: O=[N+]([O-])c1ccc(OP(=O)(O)O)cc1
As to the kind of experiment: purified protein. Particulars: Mg2+; pH 7.5; 25.0 °C.

Substrate in data set [3]: O=c1ccn([C@@H]2O[C@H](COP(=O)(O)O)[C@@H](O)[C@H]2O)c(=O)[nH]1
The data set is described as follows: purified protein. The conditions noted are these: Mg2+; pH 7.5; 25.0 °C.

Substrate in data set [4]: O=P(O)(O)OCC(O)CO
The data set is described as follows: purified protein. The conditions noted are these: Mg2+; pH 7.5; 25.0 °C.

Broadly, the Ki is a measure of affinity in units of concentration, obtained from inhibition or displacement. A low value points to higher affinity. As to `O=P(O)(O)NP(=O)(O)O` [imidodiphosphate], the affinity in data set [1] corresponds to a Ki of 13 ± 1 µM.

B1: BT2127 (Bacteroides thetaiotaomicron VPI-5482) (protein)
chain: T1 sequence (Q8A5V9 1-224)
As usually defined, the Km is the concentration of substrate that gives half-maximal velocity. In general, kcat refers to the maximal rate divided by the concentration of active sites. As a reminder, the kcat/Km is the second-order rate constant that governs catalysis at low substrate concentration. For B1, in data set [2], the Km worked out at 50 ± 10 µM, the kcat came out at 0.0019 s⁻¹ and the kcat/Km is 40 M⁻¹ s⁻¹. Moreover, in data set [3], the Km worked out at 2600 ± 400 µM, the kcat is 0.15 s⁻¹ and the catalytic efficiency (kcat/Km) was found to be 60 M⁻¹ s⁻¹. For the same molecule, in data set [4], the Km was determined as 4800 ± 300 µM, the kcat came out at 0.35 s⁻¹ and the kcat/Km was found to be 70 M⁻¹ s⁻¹.
